The target of this assay is T1, ANK1-F2 (ankyrin 1 membrane-binding domain fragment 2, aa 250–568) (human, UniProt P16157 250-568).
T1 construct: amplified from cDNA of human reticulocyte mRNA; also called HA-ANK1-F2; HA-tagged ANK1-F2; source: E. coli BL21 (DE3) pLysS, pET30a, purified; not shown: HA, C-terminal, kept
T1 sequence (looked up): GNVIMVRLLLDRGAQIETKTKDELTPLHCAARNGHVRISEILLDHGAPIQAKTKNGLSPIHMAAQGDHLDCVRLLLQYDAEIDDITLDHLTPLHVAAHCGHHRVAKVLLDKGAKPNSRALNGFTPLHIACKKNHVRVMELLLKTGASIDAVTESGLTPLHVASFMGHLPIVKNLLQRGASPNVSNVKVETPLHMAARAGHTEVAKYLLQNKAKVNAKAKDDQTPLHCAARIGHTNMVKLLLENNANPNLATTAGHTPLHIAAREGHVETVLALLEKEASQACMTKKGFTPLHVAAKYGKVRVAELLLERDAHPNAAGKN
As to the kind of experiment: SPR; BIAcore S200, 25 °C, HBS-EP pH 7.4; ANK1-F2 immobilised on a CM5 chip, PfGAMA-Tr3 or PvGAMA-F2 injected at varying concentrations; response at equilibrium against concentration, 1:1 Langmuir model. The conditions noted are these: both partners purified. (In general: SPR reads the build-up and loss of mass on a sensor chip optically.)

B1: recombinant PvGAMA-F2 (P. vivax glycosylphosphatidylinositol-anchored micronemal antigen, aa 345–589) (domain or fragment)
chain: DVSVDEKGDRATTAGGNQSASVAAAAPKDAGPTVAAPNTAATLKTAASPNAAATNTAAPPNMGATSPLSNPLYGTSSLQPKDVAVLVRDLLKNTNIIKFENNEPTSQMDDEEIKKLIESSFFDLSDNTMLMRLLIKPQAAILLIIESFIMMTPSPTRDAKTYCKKALVNGQLIETSDLNAATEEDDLINEFSSRYNLFYERLKLEELREIEQNRKALKNSKGTLSVLEVANSQNAPDGKGVNGSG
notes: PvGAMA, P. vivax, PVX_088910, 771-amino acid protein; Cloned into BamH1/Xho1 sites of pET30a; further vector-encoded residues may be present; also called His-PvGAMA-F2; source: E. coli BL21 (DE3) pLysS, pET30a, purified (Ni-NTA); not shown: Flag, C-terminal, kept
By Kd is commonly meant a measure of binding affinity in units of concentration. Read a high Kd as a looser complex. As for B1, binding was put at a Kd of 13.8 µM. That is a double-digit micromolar value.

B2: recombinant PfGAMA-Tr3 (P. falciparum glycosylphosphatidylinositol-anchored micronemal antigen, aa 500–715) (domain or fragment)
chain: KDIIKLLKDLIKYLHIVKFENNEPTTNIDEEGIRKLLENSFFDLNDDILIVRLLLKPQTVILTVIQSFMLMTPSPSRDAKAYCKKALINDQLVPTNDTNILSEENELVNNFSTKYVLIYEKMKLQELKEMEESKLKMKYSKTNLSALQVTNPQNNKDKNDASNKNNNPNNSSTPLIAVVTDLSGEKTEDIINNNVDIATLSVGVQNTFQGPNAKAG
notes: PfGAMA, P. falciparum, PF3D7_0828800, 738-amino acid protein; Cloned into BamH1/Xho1 sites of pET30a; further vector-encoded residues may be present; also called His-PfGAMA-Tr3; Flag-PfGAMA-Tr3; source: E. coli BL21 (DE3) pLysS, pET30a, purified (Ni-NTA); not shown: Flag, C-terminal, kept
The molecule B2 showed a Kd of 0.166 µM.
